Measurements from US20130195757, “SPARC BINDING APTAMERS AND USES THEREOF” (ABRAXIS BIOSCIENCE, LLC, published 2013).

Key:
[1] = target: T1, VEGF165 (Homo sapiens, UniProt P15692-4 P15692-4:27-191); experiment: SPR; negligible binding; conditions: tags: PeproTech; amine-coupled to CM5 chip; chain copies: 2
[2] = target: T2, SPARC (osteonectin), recombinant human (Biol-SPARC) (Homo sapiens, UniProt P09486 P09486:18-303); experiment: SPR; SPARC immobilized on CM5; HBS 10 mM HEPES 150 mM NaCl 0.005% P-20; approx 4 pM in p171; conditions: tags: Biol; amine-coupled to CM5 chip or injected as analyte
T2 sequence: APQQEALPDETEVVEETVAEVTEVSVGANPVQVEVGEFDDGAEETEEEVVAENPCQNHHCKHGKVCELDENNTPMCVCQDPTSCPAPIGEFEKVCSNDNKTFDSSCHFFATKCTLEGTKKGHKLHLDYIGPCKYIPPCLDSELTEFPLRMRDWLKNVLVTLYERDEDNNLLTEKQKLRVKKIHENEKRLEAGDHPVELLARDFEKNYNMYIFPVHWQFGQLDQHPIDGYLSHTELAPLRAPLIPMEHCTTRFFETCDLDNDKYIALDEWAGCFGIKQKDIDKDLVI
Method: After coupling, the remaining active groups were blocked with ethanolamine (1 M). Purified recombinant human VEGF165 (PeproTech, Rocky Hill, N.J.) was diluted into 100 μg/mL in sodium acetate, pH 5.5 and immobilized onto the biosensor chip surface as a control, and VEGF DNA aptamers were injected (FIG. 3). To validate recovery, the resulting bound VEGF aptamers were eluted, and 2 μL were recovered, out of which 0.5 μL was amplified by PCR.
(§1) A concentration series of selected oligonucleotide DNA were injected over both reference surface and SPARC surface. Reference surfaces were used to subtract bulk refractive index responses from the specific SPARC binding signal as well as to ensure that there is no nonspecific interaction with the sensor chip surface.
FIG. 21 depicts a sensorgram showing the binding and dissociation of Apt180 (SEQ ID NO: 1) to a Biol-SPARC immobilized CM5 sensorchip as described in Example 3. […] FIG. 22 is a sensorgram showing the binding and dissociation of Biol-SPARC and a modified Apt180 having the 3′ primer region of the aptamer removed. As described in Example 3, Biol-SPARC was immobilized to CM5 sensorchip and various concentrations (0.625 μM, 1.25 μM, 2.5 μM, 5 μM, and 10 μM) of the 3′ primer deleted Apt180, were injected over the Biol-SPARC sensor chip. The resulting KD calculated from this experiment was 1.45 nM. […]

[3] = target: T2, SPARC (osteonectin), recombinant human …; experiment: SPR; SPARC immobilized; conditions: tags: Biol; amine-coupled to CM5 chip or injected as analyte
[4] = target: T2, SPARC (osteonectin), recombinant human …; experiment: SPR; SPARC immobilized; conditions: tags: Biol; amine-coupled to CM5 chip or injected as analyte; remark: listed apart in the source
Method: (§2) Purified SPARC was immobilized onto the surface of a CM5 biosensor chip (GE/Biacore International AB) by the use of the amine coupling kit and the Surface Preparation tool as present in the BIACORE 3000® control software. The biosensor chip surface was activated by injecting (35 μL at a flow rate of 5 μL/min) a mixture of N-hydroxysuccinimide (NHS) and N-ethyl-N′-(dimethyl-aminopropyl)-carbodiimide (EDC) (1:1; v/v) into one of the four flow channels (Fcs). Then the SPARC, diluted (0.1 mg/mL) in coupling buffer (10 mM sodium acetate, pH 4.5), was injected and bound to the activated carboxymethylated dextran surface via its primary amine groups. After coupling, the remaining active groups were blocked with ethanolamine (1 M). Purified recombinant human VEGF165 (PeproTech, Rocky Hill, N.J.) was diluted into 100 μg/mL in sodium acetate, pH 5.5 and immobilized onto the biosensor chip surface as a control, and VEGF DNA aptamers were injected (FIG. 3). To validate recovery, the resulting bound VEGF aptamers were eluted, and 2 μL were recovered, out of which 0.5 μL was amplified by PCR.
as §1

[5] = target: T2, SPARC (osteonectin), recombinant human …; experiment: SPR; heterogeneous ligand model KD1; KD2 0.103 mM; units as printed; conditions: tags: Biol; amine-coupled to CM5 chip or injected as analyte
Method: as §2
A concentration series of selected oligonucleotide DNA were injected over both reference surface and SPARC surface. […]

[6] = target: T2, SPARC (osteonectin), recombinant human …; experiment: SPR; aptamer immobilized on SA chip; 1:1 Langmuir; conditions: tags: Biol; amine-coupled to CM5 chip or injected as analyte; label: 3'-biotin
Method: 20 μM each of biotinylated Apt180 (SEQ ID NO: 1), biotinylated Apt187 (SEQ ID NO: 2), or a control scrambled aptamer with biotin coupled to the 3′-end were immobilized onto commercially prepared SA sensor chips (GE/Biacore International AB), which have preimmobilized streptavidin, to allow biotin capture. Typically 1200 to 1300 RU of biotinylated aptamers were immobilized.
Using methods as described in Examples 2-3, above, biotinylated Apt180 and Apt187 were immobilized on CM5 sensorchips immobilized with streptavidin (SA sensorchips). Biol-SPARC was injected at concentrations ranging from 34.9 nM to 840 nM over the immobilized Apt180 and Apt187. For Apt180, the resulting curves were best fitted by heterogeneous ligand model indicating the possible presence of multiple binding sites.

[7] = target: Bovine serum albumin (Bos taurus, UniProt P02769 P02769:25-607); experiment: SPR; negligible binding; conditions: label: 3'-biotin
Sequence of Bovine serum albumin (P02769 25-607, one chain of several): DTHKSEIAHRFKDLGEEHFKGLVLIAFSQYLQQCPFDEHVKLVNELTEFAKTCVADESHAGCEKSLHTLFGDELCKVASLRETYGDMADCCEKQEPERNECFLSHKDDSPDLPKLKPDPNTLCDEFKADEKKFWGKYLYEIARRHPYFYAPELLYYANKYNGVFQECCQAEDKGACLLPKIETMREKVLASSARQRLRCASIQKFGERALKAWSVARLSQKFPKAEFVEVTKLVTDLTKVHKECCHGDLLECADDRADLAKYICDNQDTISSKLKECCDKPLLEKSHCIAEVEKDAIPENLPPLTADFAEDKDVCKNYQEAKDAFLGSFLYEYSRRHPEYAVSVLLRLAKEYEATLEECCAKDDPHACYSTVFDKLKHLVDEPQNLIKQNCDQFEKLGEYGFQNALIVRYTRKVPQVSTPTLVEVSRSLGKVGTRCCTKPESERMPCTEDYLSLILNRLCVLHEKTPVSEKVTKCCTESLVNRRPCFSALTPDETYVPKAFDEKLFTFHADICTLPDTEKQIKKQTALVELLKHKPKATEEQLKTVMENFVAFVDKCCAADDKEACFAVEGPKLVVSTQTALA

[8] = target: T3, SPARC, mouse (from PYS-2 cells) (Mus musculus, UniProt P07214 P07214:18-302); experiment: SPR; aptamer immobilized on SA chip; conditions: tags: Sigma; PYS-2 parietal yolk sac cells; label: 3'-biotin
T3 sequence: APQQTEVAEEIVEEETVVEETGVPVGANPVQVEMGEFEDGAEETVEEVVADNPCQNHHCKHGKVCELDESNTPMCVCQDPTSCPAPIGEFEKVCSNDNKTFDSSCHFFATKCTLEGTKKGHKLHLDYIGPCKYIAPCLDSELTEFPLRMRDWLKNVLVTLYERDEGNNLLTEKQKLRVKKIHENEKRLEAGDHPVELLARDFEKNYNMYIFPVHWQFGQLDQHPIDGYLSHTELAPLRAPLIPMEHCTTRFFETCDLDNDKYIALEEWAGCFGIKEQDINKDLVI

[9] = target: T1, VEGF165; experiment: SPR; VEGF immobilized; no specific interaction; conditions: tags: PeproTech; amine-coupled to CM5 chip; chain copies: 2

T1 sequence (P15692 other isoform, or with tags, fused parts or gaps): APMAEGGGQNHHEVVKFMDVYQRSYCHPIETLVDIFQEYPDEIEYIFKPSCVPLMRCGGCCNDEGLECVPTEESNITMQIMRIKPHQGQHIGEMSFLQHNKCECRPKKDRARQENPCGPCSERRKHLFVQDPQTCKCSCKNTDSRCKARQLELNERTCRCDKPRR

B1: Apt180 (ssDNA)
DNA: GAATTCGATGGTAACCAAGGCTGTTCGGTATTTTGATATTTTTATGCGTCATCTGATCTAGCCAAG
binding result [1]: no binding | Kd [2]: 0.0044 nM

B2: Apt187 (ssDNA)
DNA: GAATTCGATGGTAACCAAGGCGGGGTTTTCGTATGCTCATTCCAGTGGTCATCTGATCTAGCCAAG
Kd [3]: 0.19 nM

B3: Apt100 (ssDNA)
DNA: GAATTCGATGGTAACCAAGGTCACTTTTTTATGTCGCTTAAATGTTGGTCATCTGATCTAGCCAAGC
Kd [3]: ~300 nM

B4: Apt216 (AptBia216) (ssDNA)
DNA: GAATTCGATGGTAACCAATGATGTTATTTTTTTGTGCTTTTATTCTTTTCATCTGATCTAGCCAAG
Kd [4]: 447 nM

B5: Apt211 (AptBia211) (ssDNA)
DNA: GAATTCGATGGTAACCAAGGAATATTTGGGGTTTTTTGCTTCTGGACGTCATCTGATCTAGCCAAG
Kd [5]: 132000 nM

B6: Apt187 3'-biotin (ssDNA)
DNA: GAATTCGATGGTAACCAAGGCGGGGTTTTCGTATGCTCATTCCAGTGGTCATCTGATCTAGCCAAG
Kd [6]: 30.2 nM

B7: Apt180 3'-biotin (ssDNA)
DNA: GAATTCGATGGTAACCAAGGCTGTTCGGTATTTTGATATTTTTATGCGTCATCTGATCTAGCCAAG
binding result [7]: no binding | Kd [8]: 1200 nM

B8: Apt191 (ssDNA)
DNA: GAATTCGATGGTAACCAAGGGGGTGTTTGTTTTTGTAGTCATTGTTGGTCATCTGATCTAGCCAAG
Kd [4]: 84.2 nM | binding result [9]: no binding

B9: Apt231 (AptBia231) (ssDNA)
DNA: GAATTCGATGGTAACCAATGCGCTTATGTTTTTTTTATTTTTTATGTTTCATCTGATCTAGCCAAG
Kd [4]: 45.4 nM

B10: Apt208 (AptBia208) (ssDNA)
DNA: GAATTCGATGGTAACCAAGCAATTTGTATTTTTGTGTATTTATTTTGTTCATCTGATCTAGCCAAG
Kd [4]: 100 nM

B11: Apt207 (AptBia207) (ssDNA)
DNA: GAATTCGATGGTAACCAAGTGTATTGTTTATTCTTCTGTTTCTTATTGTCATCTGATCTAGCCAAG
Kd [4]: 139 nM

B12: Apt184 (ssDNA)
DNA: GAATTCGATGGTAACCAACCCAATGTGTTTCGTTTGTTTTCATTTGTCATCTGATCTAGCCAAG
Kd [4]: 277 nM

B13: Apt181 (ssDNA)
DNA: GAATTCGATGGTAACCAATTTCCGTATTGTTGGTTTGTGTTTGTGTCGTCATCTGATCTAGCCAAG
Kd [4]: 298 nM
